Experiment: label from the status in PepcDB records
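Note: failed if final PepcDB status was selected cloned or expressed and not failed if soluble or beyond.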

Row | Sequence | protein production
1 | MEAIFWLALALVAFTYAGYPLVLAVWDGAREALAAVRFVSGGDDRRGRATEGWPTVTLLFSAFDEEAWIRRKIENCLALDYPPDRLEILVGCDGCTDRTAEIAREVGGSRVKVHALSPRAGKASVLSRLVPQARGDLVVLTDANVMLERGALRALARRFREPGVGAVVGRLRLFNPTRREFEESLYWKYETAIKYYEGKHGCVLGANGGIYAIRRILFSPLPPDTIVDDFVIPVRIAARGWEVPFEPEAVAFEETTEDAGHEFGRRARIGAGNWQALARVPELLDPRTGFLCFAFVSHKLLRWSAPFLLAAAAVANGLLAAAPGAWGYRALLLAQAAFYGLALAGRHGAVGLRGPVRRLASLAHYFVAMNAALAVGLWRFLRRSQRAAWQRTERAGPSVPAA | failed
2 | MEAITYKYYQEKYYGNILNEEDFKRYEKKARRKLSSFTFGRIDCLQNVPDEVGDCICDMAEKISLEESKENFSGIVSESTDGHSVTFEKKQSIEQMNKELYLIAVGYLNNTGLLYGGVCLCSTARNW | failed
3 | MEAKQAAGALLTVVGVLLILYAIYSGFVNETIGSTEKFSADAAAMIVGWFAVLIGPALLFGETPAAVRKAAGR | failed
4 | MEALDWLVIGVFFLALIGIIVWVVRQKQNDSADYFLGGRDATWLAIGASIFASNIGSEHLIGLAGAGASSGMAMAHWEIQGWMILILGWVFVPFYSRSMVYTMPEFLERRYNPQSRTILSVISLVSYVLTKVAVTVYAGGLVFQQVFGIKELWGIDFFWIAAIGLVVLTALYTIFGGMKSVLYTSVLQTPILLLGSLIILVLGFKELGGWDEMMRVCGAVTVNDYGDTMTNLIRSNDDANFPWLGALIGSAIIGFWYWCTDQFIVQRVLSGKNEKEARRGTIFGAYLKLLPVFLFLIPGMIAFALHQKYIGAGGEGFLPMLANGTANADAAFPTLVAKLLPAGVKGLVVCGILAALMSSLASLFNSSAMLFTIDFYKRFRPETPEKKLVGIGQIATVVIVILGILWIPIMRSVGDVLYTYLQDVQSVLAPGIAAAFLLGICWKRTSAQGGMWGLIAGMIIGLTRLGAKVYYSNAGEVADSTFKYLFYDMNWLFFCGWMFLFCIIVVIVVSLATEAPTAEKIQGLVFGTATKEQKAATRASWDHWDIIHTVIILAITGAFYWYFW | failed
5 | MEASRNRSLVGNNRSPEMNENDGEDVAASAAVEDVEVWDTLSNGFKRAQLYLDQNRDLIQRVNENHMSRIPDNVSRNVGLINEINGNISQVMEIYSDLSLNFAKKFDQRRRTTKDGDTTTTTTGS | failed
6 | MECDRISTLPDHLVAKIVSYLGIKDSIKTSVLSKRWEFVWLKVVGLDLKNCDFPPNGIASQMVVNKYMEFNSGLHMQYFKVNFGGNTVCTNRFLEWIATAVDRGVQHLDAENKNPVIIKEFMPKKIYKSKTLVSLKLAIKIFLKARHFISVFIVLQGQSIVQFSSRCGTFS | not failed
7 | MECKTMERITVNLGERSYPISIGAGLFANPALLSLSAKQKVVIVTNHTVAPLYAPAIISLLDHIGCQHALLELPDGEQYKTLETFNTVMSFLLEHNYSRDVVVIALGGGVIGDLVGFAAACYQRGVDFIQIPTTLLSQVDSSVGGKTAVNHPLGKNMIGAFYQPKAVVIDTDCLTTLPAREFAAGMAEVIKYGIIYDSAFFDWLEAQMEALYALDEQALTYAIARCCQIKAEVVAQDEKESGIRALLNLGHTFGHAIEAHMGYGNWLHGEAVSAGTVMAAKTAQLQGLIDASQFERILAILKKAHLPVRTPENMTFADFMQHMMRDKKVLAGELRLVLPTSIGTSAVVKGVPEAVIAQAIEYCRTV | not failed
8 | MECPFVSVVVGIRNEERYIEECIESLLRLDYPQDSYEIIIVDGMSTDRTRELVQKYPVRLLLNERKNVAAARNLGVQNSMGDFVAFTDGDCKADPLWLKTLVTEMKNAPEDVVCVGGPNLIFDTDPVFGRVVGHAQETFLGSGGSAQSKNSLKKHYVSSLPNCNAMYKKNTIIEAGYFDERFVVGQDGDLNYRINKKGYKFLYIPEAIVLHHRRGTLKSFSVRMFKYGMWMGELFKKHGELVRWYAILPSVAILFSVFSLIISPVYTTPIIVLLLMGFLYLILVFIASIQVIFKMKSKYGLYALVVIPVQHITYGMGFLYSFANSLYKSKGVSSSIVQN | failed
9 | MEDGMNTFDLYYWPVPFRGQLIRGILAHCGCSWDEHDVDAIEGLMDCGAEKQPVAFMGPPVLIDRERNFAISQMPAIAIYLGERLDILPATVEGRTLSAKIVNDANDVLDELTLNGGREMWTPEKWQEFVPRLQKWIRIFADTGARNGLSAASGFMLGTEKIGVADIVTAILWTTVADRFPAIKGIIEDTSPIIWGLSRRVVATAPLAALNSKSFEEYGNAYCGGEIEKSLRKVAS | not failed
10 | MEDIEYLDEYKDLVLPGIKSSAPTASSAGVPRQRRISSDSSNSSSIDADIFQKLFHGKYLDDELLKEGSGSKSQDRRRRPPSPSSSDESNDALEALFCGK | failed
11 | MEDIIFGKRSNVFDVNPENTVFVLIAGTSEVSTVPGITSAGATPELTRLTPAIDSEIIGEGKCLSSKDPPMTPEGIPTPAIVTKAILSLTNIRYIIVNGGFYAKPKTPFIETGLKPSNNPAVKTAIEDLDAAIHAGEHIGRLLDGVFENIILAESVPGGTTTAYAVLKAIGINAKTSSSMKEDPFSIKEKIAEMSFRRKLEKSPLGAVKEYGDNMMAVSLGISSSVKRSKIIFGGGTQMATVMYLDRLINGMRDRYISTTGWVYYHRTELFSDLGLSDYLAVSAMDFSGMKHPGLRYYQYGHVREGTGMGAAFLLARLMNFEAEAIYKSVDDFYEQFI | failed
12 | MEDLTASVTNRTVSLPLSCVTTDFGLGVIYASKNQESKTTREKPMLVTLNSSLEHTYQKDFKSLREILSRKVAWQTEAVNAISQIICGCKTDSTRRNQASGIWLALLGPDKVGKKKVAMTLSEVFFGGKVNYICVDFGAEHCSLDDKFRGKTVVDYVTGELSRKPHSVVLLENVEKAEFPDQMRLSEAVSTGKIRDLHGRVISMKNVIVVVTSGIAKDNATDHVIKPVKFPEEQVLSARSWKLQIKLGDATKFGVNKRKYELETAQRAVKVQRSYLDLNLPVNETEFSPDHEAEDRDAWFDEFIEKVDGKVTFKPVDFDELAKNIQEKIGSHFERCFGSETHLELDKEVILQILAASWSSLSSGEEEGRTIVDQWMQTVLARSFAEAKQKYGSNPMLGVKLVASSSGLASGVELPAKVDVIW | failed
13 | MEEELPLFSGDSGKPVQATLSSLKMLDVGKWPIFSLCSEEELQLIRQACVFGSAGNEVLYTTVNDEIFVLGTNCCGCLGLGDVQSTIEPRRLDSLNGKKIACLSYGSGPHIVLATTEGEVFTWGHNAYSQLGNGTTNHGLVPCHISTNLSNKQVIEVACGSYHSLVLTSDGEVFAWGYNNSGQVGSGSTVNQPIPRRVTGCLQNKVVVTIACGQMCCMAVVDTGEVYVWGYNGNGQLGLGNSGNQPTPCRVAALQGIRVQRVACGYAHTLVLTDEGQVYAWGANSYGQLGTGNKSNQSYPTPVTVEKDRIIEIAACHSTHTSAAKTQGGHVYMWGQCRGQSVILPHLTHFSCTDDVFACFATPAVTWRLLSVEPDDHLTVAESLKREFDNPDTADLKFLVDGKYIYAHKVLLKIRCEHFRSSLEDNEDDIVEMSEFSYPVYRAFLEYLYTDSISLSPEEAVGLLDLATFYRENRLKKLCQQTIKQGICEENAIALLSAAVKYDAQDLEEFCFRFCINHLTVVTQTSGFAEMDHDLLKNFISKASRVGAFKN | failed
14 | MEEHGHHEMEGTPLGCHSHIKLLKINREHLVTNIRNTQCLVDNLLENGYFSAEDAEIVCACPTKPDKVRKILDLVQSKGEEVSEFFLYVLQQLEDAYVDLRLWLSEIGFSPSQLIRTKTIVNTDPVSRYTQQLRHQLGRDSKFMLCYAQKEDLLLEETYMDTLMELVGFNNENLGSLGGLDCLLDHSTGVLNEHGETVFVFGDAGVGKSMLLQRLQSLWASGRLTSTAKFFFHFRCRMFSCFKESDMLSLQDLLFKHFCYPEQDPEEVFSFLLRFPHTALFTFDGLDELHSDFDLSRVPDSCCPWEPAHPLVLLANLLSGRLLKGAGKLLTARTGVEVPRQLLRKKVLLRGFSPSHLRAYARRMFPERTAQEHLLQQLDANPNLCSLCGVPLFCWIIFRCFQHFQTVFEGSSSQLPDCAVTLTDVFLLVTEVHLNRPQPSSLVQRNTRSPAETLRAGWRTLHALGEVAHRGTDKSLFVFGQEEVQASKLQEGDLQLGFLRALPDVGPEQGQSYEFFHLTLQAFFTAFFLVADDKVSTRELLRFFREWTSPGEATSSSCHSSFFSFQCLGGRSRLGPDPFRNKDHFQFTNLFLCGLLAKARQKLLRQLVPKAILRRKRKALWAHLFASLRSYLKSLPRVQSGGFNQVHAMPTFLWMLRCIYETQSQKVGRLAARGISADYLKLAFCNACSADCSALSFVLHHFHRQLALDLDNNNLNDYGVQELQPCFSRLTVIRLSVNQITDTGVKVLCEELTKYKIVTFLGLYNNQITDIGARYVAQILDECRGLKHLKLGKNRITSEGGKCVALAVKNSTSIVDVGMWGNQIGDEGAKAFAEALKDHPSLTTLSLAFNGISPEGGKSLAQALKQNTTLTVIWLTKNELNDESAECFAEMLRVNQTLRHLWLIQNRITAKGTAQLARALQKNTAITEICLNGNLIKPEEAKVFENEKRIICF | failed
15 | MEEKAKMRRLSTWKLKLRMFLATVLLFGLIYAILMVVGSILGLGGPLFYALLGFGVIFLQYLISPKIVELTMNVHYVSEAEAPRLHAMVDELARRAGIPKPMVGIAEIALPNAFAFGRTKADGRVCVTRGILNLLDEEELRAVLGHEISHIKHSDMIVMTLVSAVPLICYYIFWSTVFSRDDEANLVGIAALIAYFIGQLIVLFISRTREYYADQGSVEIGGQPHKLASALYKLVLRLSPVQQGRPETGRGCQGLLPE | failed
16 | MEEKNIHMQPNINYSYRNPNMYNMNYHNPIVPPPQQQMQLFVNDWKSILSPMQTCKIKQQFDDREFVADYFMGFKLDFNNKYLILDASTELMKFTACEKSEFCYRNCLPKICIPMNMKILSYGKEISKPDILMEKDCTCTFLCFNRPTIKMYDFSNNNNKELIGTIKTPYRCCSYNFNLFDPSNNKIMYMDDTCCQMSILCPCPWGPFKYSNFFLRDANSKEKIAHLRKEVPFLKFVKRDIDNYTLDFEQVQNPEWKMMLLAFALFLDYMYYDRK | failed
17 | MEELLREYLPILVFLAVAAGLGLVLILAAVVLAVRNPDPEKVSAYECGFNAFDDARMKFDVRFYLVSILFIIFDLEIAFLFPWAVGFKDMSDVGFWSMMVFLGVLTIGFAYEWKKGALEWQ | failed
18 | MEEMFETSLKVIEQSGWLAPVLFIMLHVFRQVFFIPVIIICLVGGYLFGSFYGSLYSIIGLTATSALFYGIVHGFPRFLAKVSQLKKRFLGEKESLSLPQMMLLRIVPFIHFHLVSLYVMETRPTFREYMKISFYLSMPPAIIYTLFGDMIHELPLVGTVVFALFIGLLCFMARRKEQRYAWQEFFKA | failed
19 | MEEMNVFLTMIYRELKRFIRSPSRIIGSILNPLLWLIFFGKGWSGVFNFPMATRIFGGVDYMTYLVPGVVVMTVFDMSFLQGLTIIWDKQFGFMKEILVAPASRVESILGRITGGAIVAMIQGFIMVALSFIVANLKVSGVIPTLILAFFVGVAIAGLGVAVALKMSSMEGFQIIVMMLMLPMMFLSGAFYPVRTMPNWMQWLAKINPLTYAVDGARYYLAGVTPTFGIMQDWIVLILLALVFAGFAGLEFRKAYLS | failed
